This is an account of results in patent US20050153395A1, “Unique integrin binding site in connective tissue growth factor (CTGF)” (CHILDREN'S HOSPITAL INC., priority 2003, published 2005).

Assay [1] has as its target integrin αvβ3 on activated rat hepatic stellate cells (HSC) (rat) (UniProt Q8R2H2). Put plainly: cell-based or functional assay.
Assay [2] concerns the target integrin αvβ3 (purified, human) (human) (UniProt P06756). The assay is described as follows: solid phase ELISA, coated ligand, purified αvβ3 (1 µg/ml). For orientation: ELISA stands for enzyme-linked immunosorbent assay.

Chain of integrin αvβ3 (purified, human) (human) (P06756 31-1048, form in doubt, chain 1 of 2): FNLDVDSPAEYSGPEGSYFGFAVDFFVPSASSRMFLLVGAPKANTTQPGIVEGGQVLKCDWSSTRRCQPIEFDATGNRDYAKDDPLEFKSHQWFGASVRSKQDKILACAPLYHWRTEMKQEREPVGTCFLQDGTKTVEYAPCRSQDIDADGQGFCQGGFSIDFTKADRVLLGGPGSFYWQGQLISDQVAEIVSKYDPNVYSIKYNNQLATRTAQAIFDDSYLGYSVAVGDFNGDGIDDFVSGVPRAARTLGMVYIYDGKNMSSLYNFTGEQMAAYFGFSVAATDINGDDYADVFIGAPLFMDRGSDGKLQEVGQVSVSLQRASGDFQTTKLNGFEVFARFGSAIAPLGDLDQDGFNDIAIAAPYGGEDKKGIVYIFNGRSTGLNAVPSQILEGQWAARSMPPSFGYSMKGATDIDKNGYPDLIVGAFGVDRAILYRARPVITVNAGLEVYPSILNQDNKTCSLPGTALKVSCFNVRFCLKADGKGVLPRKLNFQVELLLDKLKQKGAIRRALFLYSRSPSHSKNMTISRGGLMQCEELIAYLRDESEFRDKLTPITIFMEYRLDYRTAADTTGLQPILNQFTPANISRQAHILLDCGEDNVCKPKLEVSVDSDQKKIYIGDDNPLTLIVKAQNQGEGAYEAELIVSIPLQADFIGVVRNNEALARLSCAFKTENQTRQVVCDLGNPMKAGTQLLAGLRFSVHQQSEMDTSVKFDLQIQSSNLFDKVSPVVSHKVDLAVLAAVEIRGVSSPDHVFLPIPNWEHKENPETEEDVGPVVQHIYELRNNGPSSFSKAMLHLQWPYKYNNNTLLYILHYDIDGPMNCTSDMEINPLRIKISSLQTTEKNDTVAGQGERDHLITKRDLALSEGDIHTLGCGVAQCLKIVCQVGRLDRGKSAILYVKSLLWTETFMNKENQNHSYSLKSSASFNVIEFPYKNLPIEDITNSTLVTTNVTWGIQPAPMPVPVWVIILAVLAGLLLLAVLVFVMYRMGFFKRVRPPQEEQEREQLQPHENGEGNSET
Chain of integrin αvβ3 (purified, human) (human) (P05106 27-788, form in doubt, chain 2 of 2, further chain): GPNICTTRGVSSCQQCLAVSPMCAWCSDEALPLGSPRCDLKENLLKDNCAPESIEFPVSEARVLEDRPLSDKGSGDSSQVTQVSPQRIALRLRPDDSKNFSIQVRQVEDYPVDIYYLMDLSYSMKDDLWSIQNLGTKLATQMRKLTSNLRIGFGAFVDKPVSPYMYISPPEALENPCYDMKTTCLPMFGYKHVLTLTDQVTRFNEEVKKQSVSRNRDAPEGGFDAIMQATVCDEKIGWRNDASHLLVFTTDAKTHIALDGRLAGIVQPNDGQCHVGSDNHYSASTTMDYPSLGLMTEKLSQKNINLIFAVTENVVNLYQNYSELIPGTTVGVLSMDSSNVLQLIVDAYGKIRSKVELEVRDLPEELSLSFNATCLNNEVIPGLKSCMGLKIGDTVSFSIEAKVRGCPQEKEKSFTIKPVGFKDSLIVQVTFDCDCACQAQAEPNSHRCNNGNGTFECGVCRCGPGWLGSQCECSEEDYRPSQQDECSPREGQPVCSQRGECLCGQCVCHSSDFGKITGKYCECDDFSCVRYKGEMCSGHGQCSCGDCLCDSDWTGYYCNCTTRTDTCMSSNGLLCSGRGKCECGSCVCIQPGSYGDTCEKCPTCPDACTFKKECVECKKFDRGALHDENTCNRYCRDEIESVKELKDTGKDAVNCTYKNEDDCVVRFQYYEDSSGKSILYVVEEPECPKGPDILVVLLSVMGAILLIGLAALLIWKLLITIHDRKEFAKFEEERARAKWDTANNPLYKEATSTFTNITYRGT
Chain of integrin αvβ3 on activated rat hepatic stellate cells (HSC) (rat) (Q8R2H2 26-787): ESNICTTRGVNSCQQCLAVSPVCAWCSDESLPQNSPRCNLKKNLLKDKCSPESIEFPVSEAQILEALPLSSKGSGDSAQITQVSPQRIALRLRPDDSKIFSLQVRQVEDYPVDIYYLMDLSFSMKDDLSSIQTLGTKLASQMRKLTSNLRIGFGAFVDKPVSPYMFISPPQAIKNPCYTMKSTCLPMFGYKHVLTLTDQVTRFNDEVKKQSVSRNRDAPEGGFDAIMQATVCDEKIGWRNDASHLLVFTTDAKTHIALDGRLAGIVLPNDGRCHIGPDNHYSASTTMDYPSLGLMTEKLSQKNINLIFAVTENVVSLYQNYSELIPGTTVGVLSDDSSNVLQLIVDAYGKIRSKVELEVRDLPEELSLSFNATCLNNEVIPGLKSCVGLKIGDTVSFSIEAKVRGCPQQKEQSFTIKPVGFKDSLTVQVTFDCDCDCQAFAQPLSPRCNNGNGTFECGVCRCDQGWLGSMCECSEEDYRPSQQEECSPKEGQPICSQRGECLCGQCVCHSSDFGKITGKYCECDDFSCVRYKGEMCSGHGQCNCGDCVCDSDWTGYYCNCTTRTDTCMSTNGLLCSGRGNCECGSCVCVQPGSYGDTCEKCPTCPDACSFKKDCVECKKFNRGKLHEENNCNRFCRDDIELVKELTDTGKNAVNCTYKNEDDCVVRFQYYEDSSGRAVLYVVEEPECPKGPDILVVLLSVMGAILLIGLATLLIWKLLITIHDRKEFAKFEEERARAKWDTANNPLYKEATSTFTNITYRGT

On to vitronectin (ligand), for which the decrease in HSC binding to vitronectin by RGD peptides (GRGDsp, Echistatin) in assay [1] was determined as 100%. This substance came in with a coating concentration at saturation of binding in assay [2] of 4 µg/mL.
